Results published in publication PMC12176259, “Bacterial transcriptional repressor NrdR – a flexible multifactorial nucleotide sensor” (The Febs Journal, 2025).
Where “and” joins values, the source holds several entries; their conditions need not be identical. Equal entries are not always repeated.

What follows are sequences tested against T1, NrdR (EcoNrdR) (Escherichia coli K-12 MG1655) (UniProt P0A8D0) (assay: MST). Details: 17 mM Tris-HCl pH 8.6 (room temperature), 100 mM NaCl, 7 mM MgCl2, 0.33 mM TCEP, 0.025% Tween-20, nucleotide effectors 1 mM each, 5 nM Cy5-dsDNA, low values mean tight binding.
T1 sequence: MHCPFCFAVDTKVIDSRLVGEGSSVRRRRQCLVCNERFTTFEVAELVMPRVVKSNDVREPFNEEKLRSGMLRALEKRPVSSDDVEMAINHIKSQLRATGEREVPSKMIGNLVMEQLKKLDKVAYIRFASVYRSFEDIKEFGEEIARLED

Row | Sequence | Kd
1 | ACTATTTGCTATATATTGTGTGGTTGAATCTTTTTTCAACTACATCTAGTATCTCTG (double strand) [nrdHIEF promoter (nrdEF_Cy5)] | 138 nM and 328 nM and 187 nM
2 | CATACCCCCTATATATAGTGTTCTAAGCAGCTTCCCGTACTACAGGTAGTCTGCATG (double strand) [nrdAB promoter box 1+2] | 128 nM and 113 nM and 96 nM
3 | GCAAAGCACTATATATAGACTTTAAAATGCGTCCCAACCCAATATGTTGTATTAATC (double strand) [nrdDG promoter] | 160 nM and 171 nM and 152 nM
